The values below are quoted from earlier work in PMC5519984.

The target in series [1] is Ras (Homo sapiens) (UniProt P01112).
Series [2] has the same target. The source holds these as a separate data set.

Read-outs that look alike come from different tables or passages of the source.

As usually defined, the Kd is the concentration at which binding is half-saturated. Take HBS3 929-944 (from UniProt Q07889): the Kd was 28 µM with Ras (Homo sapiens) [1] and 158 µM with Ras (Homo sapiens) [2].
